Experiment [1] addresses T1, human full length TDP-43 protein (human, UniProt Q13148 1-414).
T1 construct: mature; Coated at 1 ug/ml on ELISA plates; also called hTDP-43 full length (FL) protein; human FL TDP-43
Kind of experiment: indirect ELISA on coated human full length TDP-43, anti-human secondary antibody, absorbance A450nm; apical supernatants of hCMEC/D3 in the OrganoPlate BBB model 3 days after transduction, and purified control antibodies. For orientation: ELISA stands for enzyme-linked immunosorbent assay.
Description: Supernatants from both top lane (apical) and bottom lane (basolateral) were collected 3 days post-transduction and antibody concentrations in the apical and basolateral compartments were determined by binding to human full-length (FL) TDP-43 using an indirect ELISA. In brief, ELISA plate coating with 1 μg/ml human FL TDP-43 was performed overnight in carbonate buffer at 4° C. Plates were washed with 0.05% Tween-20/PBS and then blocked with 1% bovine serum albumin (BSA) in 0.05% Tween-20/PBS for 1 hour at 37° C. Collected antibody-containing supernatants were then added to the plate and incubated for 2 hours at 37° C. after which the plates were washed. […] After the final wash, plates were incubated with pNPP solution and read at 405 nm after 1h using a plate reader (BioTek). […] Supernatants from both apical and basolateral sides were collected 3 days post-transduction and antibody concentrations in the apical and basolateral compartments were determined by binding to human FL TDP-43 using an indirect ELISA as described previously.

The target in experiment [2] is T2, TDP-43 C-terminal peptide called TP-62.
T2 construct: also called TP-62 peptide
Nature of the experiment: BLI (Octet), TP-62 peptide loaded at 500 nM on streptavidin biosensors, antibody from 100 nM in 2-fold serial dilutions, 900 s association, 600 s dissociation [cont.].

For experiment [3] the target is unchanged. Nature of the experiment: BLI (Octet), TP-62 on streptavidin biosensors, 2-fold dilutions from 100 nM, 30 C. (In BLI a coated tip is dipped into the sample, and binding shifts an interference pattern.)
Experiment [4] has the same target. Kind of experiment: BLI (Octet), TP-62 on streptavidin biosensors; range told for the IgG constructs, transfected or vectorized.

Values joined by “and” are separate entries in the source; they are usually repeats but may differ in a detail not shown here. Identical values can stand only once.

T1 sequence (Q13148 whole entry): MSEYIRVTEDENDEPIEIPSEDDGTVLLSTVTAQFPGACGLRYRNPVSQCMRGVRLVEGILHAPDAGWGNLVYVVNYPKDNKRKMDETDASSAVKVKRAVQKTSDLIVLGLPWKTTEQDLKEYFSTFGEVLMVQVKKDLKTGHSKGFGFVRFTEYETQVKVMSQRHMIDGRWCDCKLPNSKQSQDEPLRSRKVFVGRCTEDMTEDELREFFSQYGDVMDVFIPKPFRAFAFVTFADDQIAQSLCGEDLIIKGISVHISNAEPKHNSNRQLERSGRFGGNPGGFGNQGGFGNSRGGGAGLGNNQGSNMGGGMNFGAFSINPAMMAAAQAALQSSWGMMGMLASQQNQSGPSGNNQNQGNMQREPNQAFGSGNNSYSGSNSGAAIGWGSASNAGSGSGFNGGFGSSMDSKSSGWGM

B1: MAB1 IgG (anti-TDP-43 antibody, chimeric human IgG1) (antibody, V domains shown)
VH: EVQLQQSGPELVKPGASVKISCKTSGFTFTEYSMHWVKQSHGKSLEWIGGINPNNGGTSYNQKFKGKATLTVDKSSSTAYMELRSLTSEDSAVYYCARESWGQGTTLTVSS
VL: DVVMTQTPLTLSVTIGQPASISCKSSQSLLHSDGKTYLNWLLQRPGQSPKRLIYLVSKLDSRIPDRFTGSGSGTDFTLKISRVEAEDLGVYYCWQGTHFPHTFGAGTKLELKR
notes: Chimeric human IgG1 anti-TDP-43; The IRES and 2 promoter constructs give the same correctly matured protein, whether transfected (CHO) or AAV-vectorized, so they are treated as one molecule; also called MAB1 hIgG1; IgG standard
On to B1, for which the binding result in experiment [1] is listed as “binds”. In experiment [2], this molecule had a Kd of approximately 4.66 nM, a koff of 0.000435 s⁻¹ and a kon of 170000 M⁻¹ s⁻¹. For the same molecule, the Kd in experiment [3] was 5.7 nM and 4.7 nM and 4.3 nM. Further, the Kd in experiment [4] is 4 to 6 nM.

The Kd is the concentration at which binding is half-saturated. A higher Kd goes with a looser complex. For orientation: koff means a measure of how fast the partners let go of each other. Read a high koff as fast dissociation. The term kon denotes a measure of how fast the partners come together. Low values mean slower complex formation, high ones faster complex formation.
